Legend:
[1] = target: T1, NR-LU-10 antigen (Homo sapiens, UniProt P16422); test: NR-LU-10 tumor tissue reactivity (Table A); format: binding
T1 construct: Positive NR-LU-10 tissue reactivity indicates NR-LU-10 antigen expression by such tissues; from tissue; host or cells: carcinoma and normal tissue specimens
T1 sequence (P16422 24-314): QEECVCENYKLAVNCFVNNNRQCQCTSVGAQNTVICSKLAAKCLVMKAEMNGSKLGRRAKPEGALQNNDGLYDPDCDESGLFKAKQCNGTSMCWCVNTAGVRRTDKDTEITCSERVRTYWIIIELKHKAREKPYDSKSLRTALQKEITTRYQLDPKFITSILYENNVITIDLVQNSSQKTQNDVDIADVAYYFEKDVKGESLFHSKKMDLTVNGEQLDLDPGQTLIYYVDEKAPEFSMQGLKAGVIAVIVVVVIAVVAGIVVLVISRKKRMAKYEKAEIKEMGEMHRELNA
Description: Radioimmunoassays, immunoprecipitation and Fluorescence-Activated Cell Sorter (FACS) analysis were used to obtain reactivity profiles of NR-LU-10. The NR-LU-10 target antigen was present on either fixed cultured cells or in detergent extracts of various types of cancer cells. For example, the NR-LU-10 antigen is found in small cell lung, non-small cell lung, colon, breast, renal, ovarian, pancreatic, and other carcinoma tissues. Tumor reactivity of the NR-LU-10 antibody is set forth in Table A, while NR-LU-10 reactivity with normal tissues is set forth in Table B. The values in Table B are obtained as described below. Positive NR-LU-10 tissue reactivity indicates NR-LU-10 antigen expression by such tissues.

[2] = Human clinical trials of NR-LU-10; format: in vivo; settings: over 565 patients
Procedure: The hybridoma secreting NR-LU-10 was developed by fusing mouse splenocytes immunized with intact cells of a human small cell lung carcinoma with P3×63/Ag8UI murine myeloma cells. After establishing a seed lot, the hybridoma was grown via in vitro cell culture methods, purified and verified for purity and sterility.

B1: NR-LU-10: 150 kilodalton IgG2b monoclonal antibody recognizing an approximately 40 kilodalton glycoprotein antigen expressed on most carcinomas (antibody, V domains shown)
VH: EVQLQQSGAELVKPGASVRLSCTASGFNIKDTYMHWVIERPEQGLEWIGRIDPANGNTKCDPKFQGKATITADTSSNTAYLQLSSLTSEDTAVYYCSREVLTGTWSLDYWGQGTSVTVSS
VL: DIQMIQSPSSMFASLGDRVSLSCRASQGIRGNLDWYQQKPGGTIKLLIYSTSNLNSGVPSRFSGSGSGSDYSLTISSLDSEDFADYYCLQRNAYPYTFGGGTKLEIK
# Pos/Exam ([1]; Breast Adenocarcinoma): 23/23
Intensity Avg. (rated 0-3) ([1]; Breast Adenocarcinoma): 2.9
Percent Avg. (cells stained) ([1]; Breast Adenocarcinoma): 97%
Uniformity Avg. (rated 0-3) ([1]; Breast Adenocarcinoma): 2.8
# Pos/Exam ([1]; Colon Carcinoma): 12/12
Intensity Avg. (rated 0-3) ([1]; Colon Carcinoma): 2.9
Percent Avg. (cells stained) ([1]; Colon Carcinoma): 98%
Uniformity Avg. (rated 0-3) ([1]; Colon Carcinoma): 2.9
# Pos/Exam ([1]; Liposarcoma): 0/2
Intensity Avg. (rated 0-3) ([1]; Liposarcoma): 0
Percent Avg. (cells stained) ([1]; Liposarcoma): 0%
Uniformity Avg. (rated 0-3) ([1]; Liposarcoma): 0
# Pos/Exam ([1]; Lung Adenocarcinoma): 8/8
Intensity Avg. (rated 0-3) ([1]; Lung Adenocarcinoma): 3
Percent Avg. (cells stained) ([1]; Lung Adenocarcinoma): 100%
Uniformity Avg. (rated 0-3) ([1]; Lung Adenocarcinoma): 2.2
# Pos/Exam ([1]; Lung Small Cell Carcinoma): 2/2
Intensity Avg. (rated 0-3) ([1]; Lung Small Cell Carcinoma): 3
Percent Avg. (cells stained) ([1]; Lung Small Cell Carcinoma): 100%
Uniformity Avg. (rated 0-3) ([1]; Lung Small Cell Carcinoma): 2
# Pos/Exam ([1]; Lung Squamous Cell Carcinoma): 8/8
Intensity Avg. (rated 0-3) ([1]; Lung Squamous Cell Carcinoma): 2.3
Percent Avg. (cells stained) ([1]; Lung Squamous Cell Carcinoma): 73%
Uniformity Avg. (rated 0-3) ([1]; Lung Squamous Cell Carcinoma): 1.8
# Pos/Exam ([1]; Lymphoma): 0/2
Intensity Avg. (rated 0-3) ([1]; Lymphoma): 0
Percent Avg. (cells stained) ([1]; Lymphoma): 0%
Uniformity Avg. (rated 0-3) ([1]; Lymphoma): 0
# Pos/Exam ([1]; Malignant Melanoma): 0/11
Intensity Avg. (rated 0-3) ([1]; Malignant Melanoma): 0
Percent Avg. (cells stained) ([1]; Malignant Melanoma): 0%
Uniformity Avg. (rated 0-3) ([1]; Malignant Melanoma): 0
# Pos/Exam ([1]; Malignant Melanoma Ocular): 0/2
Intensity Avg. (rated 0-3) ([1]; Malignant Melanoma Ocular): 0
Percent Avg. (cells stained) ([1]; Malignant Melanoma Ocular): 0%
Uniformity Avg. (rated 0-3) ([1]; Malignant Melanoma Ocular): 0
# Pos/Exam ([1]; Osteosarcoma): 1/1
Intensity Avg. (rated 0-3) ([1]; Osteosarcoma): 2
Percent Avg. (cells stained) ([1]; Osteosarcoma): 20%
Uniformity Avg. (rated 0-3) ([1]; Osteosarcoma): 1
# Pos/Exam ([1]; Ovarian Carcinoma): 35/35
Intensity Avg. (rated 0-3) ([1]; Ovarian Carcinoma): 2.9
Percent Avg. (cells stained) ([1]; Ovarian Carcinoma): 100%
Uniformity Avg. (rated 0-3) ([1]; Ovarian Carcinoma): 2.2
# Pos/Exam ([1]; Pancreas Carcinoma): 6/6
Intensity Avg. (rated 0-3) ([1]; Pancreas Carcinoma): 3
Percent Avg. (cells stained) ([1]; Pancreas Carcinoma): 100%
Uniformity Avg. (rated 0-3) ([1]; Pancreas Carcinoma): 2.3
# Pos/Exam ([1]; Prostate Carcinoma): 9/9
Intensity Avg. (rated 0-3) ([1]; Prostate Carcinoma): 2.8
Percent Avg. (cells stained) ([1]; Prostate Carcinoma): 95%
Uniformity Avg. (rated 0-3) ([1]; Prostate Carcinoma): 2
# Pos/Exam ([1]; Renal Carcinoma): 8/9
Intensity Avg. (rated 0-3) ([1]; Renal Carcinoma): 2.2
Percent Avg. (cells stained) ([1]; Renal Carcinoma): 83%
Uniformity Avg. (rated 0-3) ([1]; Renal Carcinoma): 1
# Pos/Exam ([1]; Synovial Sarcoma): 0/1
Intensity Avg. (rated 0-3) ([1]; Synovial Sarcoma): 0
Percent Avg. (cells stained) ([1]; Synovial Sarcoma): 0%
Uniformity Avg. (rated 0-3) ([1]; Synovial Sarcoma): 0
# Pos/Exam ([1]; Undifferentiated Carcinoma): 1/1
Intensity Avg. (rated 0-3) ([1]; Undifferentiated Carcinoma): 2
Percent Avg. (cells stained) ([1]; Undifferentiated Carcinoma): 90%
Uniformity Avg. (rated 0-3) ([1]; Undifferentiated Carcinoma): 2
# Pos/Exam ([1]; Uterine Leiomyosarcoma): 0/1
Intensity Avg. (rated 0-3) ([1]; Uterine Leiomyosarcoma): 0
Percent Avg. (cells stained) ([1]; Uterine Leiomyosarcoma): 0%
Uniformity Avg. (rated 0-3) ([1]; Uterine Leiomyosarcoma): 0
safety in human clinical trials [2]: safely administered

From patent US6416738B1, “Pretargeting methods and compounds” (NeoRx Corporation, priority 1973, dated 2002)
